Where a chain is given by its changes, count along the chain named.
T1: Peptide 1415 (entire second extracellular loop of human ORAI1) (human)
T1 peptide: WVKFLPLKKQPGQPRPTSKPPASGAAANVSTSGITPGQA

T2: Peptide 1455 (part of the second extracellular loop of human ORAI1) (human)
T2 peptide: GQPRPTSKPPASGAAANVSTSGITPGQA

T3: Peptide 1454 (part of the second extracellular loop of human ORAI1) (human)
T3 peptide: PASGAAANVSTSGITPGQA

B1: anti-M-CRAC1415-10F8 A2B6C1 (antibody, IgG1, V domains shown)
VH: QVQLQQSGAELVRPGSSVKISCKASGYAFRSYWMNWVKQRPGQGLEWIGHIYPGDGDTNYNGKFKGKATLTADKSSSTAYMQLSSLTSEDSAVYLCGRGGTTVVVDYWGQGTTLTVSS
VL: DIVMSQSPSSLAVSAGEKVTMSCKSSQSLLNSRTRKNYLAWYQQKPGQSPKLLIYWASTRESGVPDRFTGSGSGTDFTLTISSVQAEDLAVYYCKQSYNLPWTFGGGTKLEIKR
B2: M-hCRAC1415-15F3A6 (antibody, IgG1, V domains shown)
VH: QVQLQQSGAELVRPGSSVKISCKASGYAFSSYWMNWVKQRPGQGLEWIGHIYPGDADTNYNGKFKGKATLTADKSSSTAYMHLSSLTSEDSAVYFCSRQLGFRYAMDYWGQGTSVTVSS
VL: DIVMSQSPSSLAVSAGEKVTMSCKSSQSLLNSRTRKNYLAWYQQKPGQSPKLLIYWASTRESGVPDRFTGSGSGTDFTLTISSVQAEDLAVYYCKQSYNLRTFGGGTKLEIKR
notes: same variable domains as 17F6A2
B3: M-hCRAC1415-17F1A4B6 (antibody, IgG1, V domains shown)
VH: B2 VH
VL: B2 VL
notes: as for B2
B4: M-hCRAC1415-17F6A2 (antibody, mouse IgG1, V domains shown)
VH: B2 VH
VL: B2 VL
notes: Mouse monoclonal, kappa light chain; also called Anti-M-CRAC1415-17F6A2
B5: M-hCRAC1415-15F45A1 (antibody, IgG1, V domains shown)
VH: B2 VH
VL: B2 VL
notes: as for B2
B6: M-hCRAC1415-14F74A1 (antibody, mouse IgG1, V domains shown)
VH: B2 VH with A56G, H82Q, S85G, S97A, Q99S, L100G, G101R, F102L, Y104F
VL: B2 VL with K112Q
notes: Mouse monoclonal, kappa light chain; also called Anti-M-CRAC1415-14F74A1

molecular target: human ORAI1 (CRAC channel membrane protein 1) (human, UniProt Q96D31 1-301); test: cell-based or functional assay
Sequence (Q96D31 whole entry, form in doubt): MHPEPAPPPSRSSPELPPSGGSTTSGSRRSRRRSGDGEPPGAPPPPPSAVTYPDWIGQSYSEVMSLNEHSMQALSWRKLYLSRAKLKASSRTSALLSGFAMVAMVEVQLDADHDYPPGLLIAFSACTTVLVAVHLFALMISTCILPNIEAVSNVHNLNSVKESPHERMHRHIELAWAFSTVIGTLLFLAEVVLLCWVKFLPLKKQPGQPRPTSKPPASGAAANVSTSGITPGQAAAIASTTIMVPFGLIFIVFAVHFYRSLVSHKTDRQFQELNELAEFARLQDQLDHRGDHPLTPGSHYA

Row | IC50 of inhibition of PBMC (T cell) proliferation, anti-CD3/CD28 stimulation [µg/mL] | Binder
1 | 1 | B1

Molecular target: T1, Peptide 1415 (entire second …)
Test: direct peptide ELISA, peptide coated at 1 ug/ml; (+) indicates binding was detected

Row | binding result | Binder
2 | binds | B2
3 | binds | B3
4 | binds | B4
5 | binds | B5
6 | binds | B6

Molecular target: T2, Peptide 1455 (part of the second …)
Test: as above

Row | binding result | Binder
7 | binds | B2
8 | binds | B3
9 | binds | B4
10 | binds | B5
11 | binds | B6

Molecular target: T3, Peptide 1454 (part of the second …)
Test: direct peptide ELISA, peptide coated at 1 ug/ml; (-) indicates binding could not be detected

Row | binding result | Binder
12 | no binding | B2
13 | no binding | B3
14 | no binding | B4
15 | no binding | B5
16 | no binding | B6

— WO2013091903A1 (dated 2013)
